Like-named read-outs stand apart in the source and are kept apart here.
Columns and labels:
[1] = molecular target: Human VEGFR-1 D1-3 (residues 1-339) (human) (UniProt P17948); test: ITC
[2] = molecular target: Human VEGFR-1 D1-7 (residues 1-750), full-length extracellular domain (human) (UniProt P17948); test: ITC
[3] = molecular target: Human VEGFR-1 D1-7 (residues 1-750), full-length extracellular domain (human) (UniProt P17948); test: SEC-MALS
[4] = molecular target: Human VEGFR-1 D1-6 (residues 1-660) (human) (UniProt P17948); test: crystal structure
[5] = molecular target: Human VEGFR-1 D2-7 (residues 132-750) (human) (UniProt P17948); test: crystal structure

| Kd [1] | Kd [2] | stoichiometry N [3] | stoichiometry N [4] | stoichiometry N [5] | Kd ([2]; ligand) | Substance |
| --- | --- | --- | --- | --- | --- | --- |
| 50 nM | 2 nM | 1 | 1 | 1 |  | Human VEGF-A121 (ligand) |
|  |  |  |  |  | 1.7 nM | Human VEGF-A121 |

Reference: paper doi:10.1101/102822
